Assay [1] addresses T1, recombinant human KDR (human, UniProt P35968 20-764, limits assumed).
T1 construct: also called VEGFR2
Put plainly: inhibition of KDR binding to VEGF, ligand-receptor binding assay.

Assay [2] deals with T1, recombinant human KDR. Put plainly: ELISA: antibody pre-incubated with 5 µg/ml recombinant human KDR, then transferred to a VEGF-coated plate; KDR bound to VEGF detected (OD405); blocked ligand VEGF. How it is done:
(§1) An ELISA-based KDR-VEGF binding assay was developed and used to assess the potency of APX004 at blocking KDR binding to VEGF. A total of 2 μg/ml VEGF was coated on ELISA plates. APX004, the parental rabbit antibody R-36 or IgG1 isotype control antibody were pre-incubated with 5 μg/ml recombinant human KDR before being transferred to the VEGF-A coated ELISA plates. KDR bound to immobilized VEGF was detected by a mouse anti-KDR monoclonal antibody, followed by the addition of goat anti-mouse IgG conjugated with alkaline phosphatase (Fisher Scientific/Pierce Biotechnology, Rockford, Ill.). ELISA plates were developed with p-nitrophenyl phosphate substrate and absorbance at 405 nm was recorded. All experiments were performed in triplicate.
In general terms: ELISA stands for enzyme-linked immunosorbent assay.

The target of assay [3] is T2, mouse KDR (mouse, UniProt P35918 20-762, limits assumed).
T2 construct: also called murine KDR
Description: restated in the summary of the Examples.

The target in assay [4] is T1, recombinant human KDR. Put plainly: competition ELISA: APX004 pre-incubated with 5 µg/ml recombinant human KDR, then on coated VEGF-A; bound KDR detected. How it is done:
as §1

The target of assay [5] is T3, human VEGF (coated in the selectivity ELISA) (human, UniProt P15692-4 27-191, limits assumed).
T3 construct: the sentence lists it last after 'rabbit Fc-fusion protein of'
Description: direct ELISA: 1 µg/ml protein coated, 1 µg/ml APX004, goat anti-human HRP-conjugated IgG. How it is done:
(§2) Binding selectivity of APX004 was assessed by direct ELISA to VEGFR family proteins. A total of 1 μg/ml of rabbit Fc-fusion protein of human KDR, mouse KDR, human VEGFR1, human VEGFR3, human OX40L and human VEGF were coated on ELISA plates followed by incubation with 1 μg/ml of APX004. Bound APX004 was detected using goat anti-human HRP-conjugated IgG.

The target in assay [6] is T4, rabbit Fc-fusion protein of mouse KDR (mouse; rabbit, UniProt P35918 20-762, limits assumed).
T4 construct: not shown: rabbit immunoglobulin Fc
The assay is described as above. How it is done: as §2

In assay [7] the target is T5, rabbit Fc-fusion protein of human VEGFR1 (human; rabbit, UniProt P17948 27-758, limits assumed).
T5 construct: also called Flt-1; not shown: rabbit immunoglobulin Fc
Described as above. As to the method: as §2

In assay [8] the target is T6, rabbit Fc-fusion protein of human VEGFR3 (human; rabbit, UniProt P35916 25-775, limits assumed).
T6 construct: not shown: rabbit immunoglobulin Fc
T6 sequence (looked up): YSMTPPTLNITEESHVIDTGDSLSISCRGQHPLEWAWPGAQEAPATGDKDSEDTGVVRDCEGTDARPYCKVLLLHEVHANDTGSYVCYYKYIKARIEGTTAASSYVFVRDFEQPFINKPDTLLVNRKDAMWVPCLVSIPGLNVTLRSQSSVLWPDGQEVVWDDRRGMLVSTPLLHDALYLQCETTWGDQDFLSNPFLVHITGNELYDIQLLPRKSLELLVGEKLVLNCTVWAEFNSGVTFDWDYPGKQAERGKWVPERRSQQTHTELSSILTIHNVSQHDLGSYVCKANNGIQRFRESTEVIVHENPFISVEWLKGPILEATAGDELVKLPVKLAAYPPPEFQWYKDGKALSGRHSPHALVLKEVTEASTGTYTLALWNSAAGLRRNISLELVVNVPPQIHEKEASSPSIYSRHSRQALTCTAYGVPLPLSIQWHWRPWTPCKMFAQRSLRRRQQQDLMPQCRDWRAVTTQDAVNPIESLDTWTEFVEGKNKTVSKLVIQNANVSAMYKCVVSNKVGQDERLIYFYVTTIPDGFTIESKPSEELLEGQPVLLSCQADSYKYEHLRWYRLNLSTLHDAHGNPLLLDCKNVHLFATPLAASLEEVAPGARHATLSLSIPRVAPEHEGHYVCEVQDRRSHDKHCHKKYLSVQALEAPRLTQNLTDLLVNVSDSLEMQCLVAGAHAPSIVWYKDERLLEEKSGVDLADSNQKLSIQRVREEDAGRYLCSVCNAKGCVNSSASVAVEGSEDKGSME
Described as above. As to the method: as §2

For assay [9], the target named is T1, recombinant human KDR. Put plainly: method not stated.

Changes are numbered by the printed parent chain.

As a reminder, the IC50 is the concentration at which inhibition is half-maximal. The Kd is the constant that tells how readily two partners part at equilibrium.

T1 sequence (P35968 20-764 limits assumed): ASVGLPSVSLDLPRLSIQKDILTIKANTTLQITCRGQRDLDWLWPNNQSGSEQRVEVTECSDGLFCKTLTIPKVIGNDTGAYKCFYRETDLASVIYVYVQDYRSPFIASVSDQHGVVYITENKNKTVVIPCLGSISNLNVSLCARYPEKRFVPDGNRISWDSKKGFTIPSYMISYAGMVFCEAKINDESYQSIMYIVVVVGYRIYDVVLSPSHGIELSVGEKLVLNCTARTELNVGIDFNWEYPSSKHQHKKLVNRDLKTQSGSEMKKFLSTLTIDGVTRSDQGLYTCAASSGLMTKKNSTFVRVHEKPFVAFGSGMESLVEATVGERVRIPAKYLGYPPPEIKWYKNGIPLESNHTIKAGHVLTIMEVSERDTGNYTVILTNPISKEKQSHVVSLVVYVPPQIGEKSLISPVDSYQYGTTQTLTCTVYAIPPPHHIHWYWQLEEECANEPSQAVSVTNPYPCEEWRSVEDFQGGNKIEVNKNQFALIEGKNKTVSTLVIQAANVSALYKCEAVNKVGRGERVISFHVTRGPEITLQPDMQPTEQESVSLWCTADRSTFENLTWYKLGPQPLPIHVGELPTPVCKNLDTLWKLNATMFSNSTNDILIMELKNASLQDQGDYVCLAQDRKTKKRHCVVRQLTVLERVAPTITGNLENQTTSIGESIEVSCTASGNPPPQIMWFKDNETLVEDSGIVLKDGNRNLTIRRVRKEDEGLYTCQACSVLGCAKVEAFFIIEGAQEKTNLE
T4 sequence (P35918 20-762 limits assumed): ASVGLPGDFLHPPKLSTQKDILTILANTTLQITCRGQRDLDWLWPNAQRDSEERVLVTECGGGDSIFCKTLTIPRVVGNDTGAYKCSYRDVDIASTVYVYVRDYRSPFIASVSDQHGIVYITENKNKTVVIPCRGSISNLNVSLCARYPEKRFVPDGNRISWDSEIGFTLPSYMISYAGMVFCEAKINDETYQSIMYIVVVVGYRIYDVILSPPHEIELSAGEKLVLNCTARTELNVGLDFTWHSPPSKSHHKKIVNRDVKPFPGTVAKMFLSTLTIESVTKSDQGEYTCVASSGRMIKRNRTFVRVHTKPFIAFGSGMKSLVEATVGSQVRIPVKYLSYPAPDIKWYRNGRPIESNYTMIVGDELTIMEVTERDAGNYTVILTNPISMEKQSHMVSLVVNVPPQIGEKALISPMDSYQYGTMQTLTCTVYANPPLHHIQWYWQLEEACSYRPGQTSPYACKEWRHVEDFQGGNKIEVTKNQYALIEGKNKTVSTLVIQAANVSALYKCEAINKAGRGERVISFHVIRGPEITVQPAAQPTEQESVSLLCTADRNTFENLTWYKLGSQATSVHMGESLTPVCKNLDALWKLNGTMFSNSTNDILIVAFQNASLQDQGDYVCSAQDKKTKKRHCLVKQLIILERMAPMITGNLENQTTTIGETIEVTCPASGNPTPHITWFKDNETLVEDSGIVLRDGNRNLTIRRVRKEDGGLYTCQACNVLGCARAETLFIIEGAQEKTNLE
T2 sequence (P35918 20-762 limits assumed): as above
T3 sequence (P15692 other isoform, or with tags, fused parts or gaps limits assumed): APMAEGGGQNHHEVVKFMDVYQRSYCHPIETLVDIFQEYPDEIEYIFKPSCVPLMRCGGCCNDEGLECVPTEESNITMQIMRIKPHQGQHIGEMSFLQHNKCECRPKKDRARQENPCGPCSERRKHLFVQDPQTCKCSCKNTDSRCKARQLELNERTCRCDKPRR
T5 sequence (P17948 27-758 limits assumed): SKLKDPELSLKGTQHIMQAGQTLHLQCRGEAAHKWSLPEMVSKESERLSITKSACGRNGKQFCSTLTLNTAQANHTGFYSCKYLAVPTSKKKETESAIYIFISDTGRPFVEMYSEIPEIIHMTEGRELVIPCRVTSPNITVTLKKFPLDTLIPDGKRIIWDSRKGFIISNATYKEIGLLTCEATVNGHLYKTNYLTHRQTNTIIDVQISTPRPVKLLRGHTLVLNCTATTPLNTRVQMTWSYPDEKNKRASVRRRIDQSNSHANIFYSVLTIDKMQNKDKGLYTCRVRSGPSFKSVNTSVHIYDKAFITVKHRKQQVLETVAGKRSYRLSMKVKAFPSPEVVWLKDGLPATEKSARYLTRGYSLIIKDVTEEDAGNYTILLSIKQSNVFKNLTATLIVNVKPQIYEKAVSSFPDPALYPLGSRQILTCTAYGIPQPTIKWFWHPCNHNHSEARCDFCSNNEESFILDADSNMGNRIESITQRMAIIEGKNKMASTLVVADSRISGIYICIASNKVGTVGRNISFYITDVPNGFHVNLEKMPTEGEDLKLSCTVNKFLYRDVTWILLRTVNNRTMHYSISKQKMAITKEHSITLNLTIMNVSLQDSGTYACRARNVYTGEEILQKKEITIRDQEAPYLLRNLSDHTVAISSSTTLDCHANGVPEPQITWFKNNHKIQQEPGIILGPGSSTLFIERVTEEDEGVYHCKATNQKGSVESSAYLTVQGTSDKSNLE

B1: rabbit anti-KDR antibody clone 43 (antibody, V domains shown)
VH: QSVEESGGRLVTPGTPLTLTCTVSGFSLSSYAMSWFRQAPGKGLEWIGLIRSSGATYYASWAKGRFTISKASTTVDLKFTSPTTEDTATYFCARVLWPGDIAYAYHNIWGPGTLVTVSS
VL: DLVMTQTPSPVSAAVGGTVTINCQASEEIGGNLAWYQQKPGQPPKLLIYSASTLTSGVPSRFKGSGSGTEYTLTISDLECADAATYYCQYTYYGFSYVGPFGGGTEVVVK
notes: rabbit monoclonal antibody, recombinantly expressed and purified for characterization
Turning to B1, the IC50 in assay [1] amounted to 7.54 nM.

B2: rabbit anti-KDR antibody clone 83 (antibody, V domains shown)
VH: B1 VH with V3L, F26I, S27D, S30A, F36V, A71T, F79M, D100E
VL: B1 VL with L2V, S9A, P10S, A13E, A14P, T53S, G66E, T91S, S96N
notes: as for B1
As to B2, in assay [1], the IC50 came to 9.77 nM.

B3: rabbit anti-KDR antibody clone 81 (antibody, V domains shown)
VH: B1 VH with S30T
VL: B1 VL with S76N, T91P
notes: as for B1
Regarding B3, the IC50 in assay [1] amounted to 4.56 nM.

B4: rabbit anti-KDR antibody clone 27 (antibody, V domains shown)
VH: QSVEESGGRLVTPGTPLTLTCTASGFALNDFAMSWVRQAPGKGLEWIGMIASSGNTFYASWAKGRFTISKTSTTVDLKFTSPTTEDTATYFCARVLWPGYIAYAYHNIWGPGTLVTVSS
VL: DPVLTQTPASVSAVVGGTVTINCQTSEDIASNLAWYQQKSGQRPKLLIYEASKLASGVPSRFKGSGSGTEYTLTISDLECADAATYYCQYTYYGSSYLGAFGGGTEVVVK
notes: as for B1
As to B4, the IC50 in [1] was determined as 5.95 nM.

B5: rabbit anti-KDR antibody clone 92 (antibody, V domains shown)
VH: QSVEESGGRLVTPGTPLTLTCTVSGFSLSSNAMSWVRQAPGEGLEWIGTISSSGSTYYATWVKGRFTISKTSTTVDLKMTSLTAADTATYFCARGDDDVSDYFYYFPIWGPGTLVTVSS
VL: AVVLTQTASPVSGAVGGTVTIKCQASQNIYNNLAWYRQKPGQPPKLLIYAASKLASGVPSRFSGSRSGTQFTLSISDLECADAATYYCQSYYFDSSSTDAAFGGGTEVVVK
notes: as for B1
In the case of B5, the IC50 in assay [1] is 32.9 nM.

B6: rabbit anti-KDR antibody clone 24 (antibody, V domains shown)
VH: B5 VH
VL: B5 VL
notes: as for B1
On to B6, for which, in [1], the IC50 is 19.8 nM.

B7: rabbit anti-KDR antibody clone 23 (antibody, V domains shown)
VH: B5 VH
VL: B5 VL
notes: as for B1
B7: the 50% inhibitory concentration (IC50) in [1] came out at 21.4 nM.

B8: clone 36 rabbit anti-KDR antibody (antibody, V domains shown)
VH: QSVEESGGRLVTPGTPLTLTCTVSGIDLNNYAMSWVRQAPGKGLEWIGIIGSSGSIFYASWAKGRITISKTSTTVDLKFTSLTTEDTATYFCARVLWAGSVAYAYHNIWGPGTLVTVSS
VL: DPVMTQTPASVSEPVGGTVTINCQASEELGSNLAWYQQKPGQPPKLLIYSASTLASGVPSRFKGSGSGTEYTLTISDLECADAATYYCQYTYFGSSYLGAFGGGTEVVVK
notes: rabbit IgG, recombinantly expressed in 293-6E cells; also called R-36; parental rabbit monoclonal antibody 36
On to B8, for which the IC50 came to 6.25 nM in assay [1] and 3.1 nM in assay [2].

B9: rabbit anti-KDR antibody clone 15 (antibody, V domains shown)
VH: QSLEESGGDLVKPGTSLTLTCTASGFSFSARHFMYWVRQAPGKGLEWIGCIDIGSGSTYYTSWAKDRFTISKPSSTTVTLQMTSLTAADTATYFCARSSGYPYYFTLWGPGTLVTVSS
VL: AVVLTQTTSSVSADVGGTVTIKCQASENIYSLLAWYQQKPGQPPKLLIYSASDLASGVPSRFSGSGFGTEFTLTISDLECADAATYHCQSYYYSGSSADTGAFGGGTEVVVK
notes: as for B1
Turning to B9, the IC50 in [1] turned out to be 17.5 nM.

B10: APX004 (humanized clone 36 anti-KDR antibody) (antibody, human IgG1, kappa, V domains shown)
VH: EVQLVESGGGLVQPGGSLRLSCAASGFDLSSYAMSWVRQAPGKGLEWVGIIGSGGSTYYASWAKGRFTISKDSSKNTVYLQMNSLRAEDTAVYFCARVLWAGSVAYAYHNIWGPGTLVTVSS
VL: DIQMTQSPSSLSASVGDRVTINCQASEELGSNLAWYQQKPGKPPKLLIYSASTLASGVPSRFSGSGSGTDYTLTISSLQPEDFATYYCQYTYFGSSYLGAFGGGTKVEIKR
notes: also called humanized 36
In the case of B10, the binding result in assay [3] is given as “binds”; in assay [5], “no binding (tested: 1 µg/ml)”; in assay [6] it was “binds”; in [7] it was “no binding (tested: 1 µg/ml)”; in assay [8], “no binding (tested: 1 µg/ml)”. The IC50 in assay [4] is 2.6 nM. In addition, in assay [9], the Kd is 0.053 nM.

For the origin of these results see patent US20140377282A1 (APEXIGEN, published 2014).
